Experimental data: the Human Domainome abundance scans (Beltran et al. 2025)

B1: Gamma-crystallin S, residues 96 to 176; numbered along this chain, P22914 (parent)
chain: IQIFEKGDFSGQMYETTEDCPSIMEQFHMREIHSCKVLEGVWIFYELPNYRGRQYLLDKKEYRKPIDWGAASPAVQSFRRI

Variants of: B1
Assay: abundance fitness (aPCA) (normalised: wild type 0, dead -1); higher = more abundant; growth selection in yeast, the domain comes from the species named
Settings: Homo sapiens

Abundance fitness, by site and new letter:
R30: T 0.011; K 0.055; N 0.044; E 0.066; M 0.047; Y -0.02; P 0; A 0.061; G 0; H 0.026; I -0.099; S -0.07; C 0.009; Q 0.11; F 0.005; W 0.105; L -0.031; V -0.144; D 0.009
S22: E -0.034; L -0.022; H -0.01; N 0.001; T -0.08; V 0.017; C 0.02; K 0.062; W 0.082; A 0.023; P -0.907; F -0.035; Y 0.142; G -0.015; Q -0.019; I 0.033; M -0.094; R -0.016
D19: F -0.116; I -0.144; E -0.018; Q 0.181; H 0.143; R -0.015; C -0.003; N -0.193; P -0.237; K -0.114; W -0.024; Y 0.009; A -0.005; L -0.124; T -0.059; V -0.038; G -0.035; M -0.097
I32: F 0.09; E -0.348; W -0.193; S -0.087; Q -0.809; L 0.025; C 0.015; P 0.051; K -0.755; M -0.001; V -0.029; R -1.01; N -0.223; T -0.027
E25: W -0.434
F27: P -0.001; A 0.033; N -0.141; Y -0.011; G 0.017; S 0.006; D -0.156; V 0.014; I 0.104; Q 0.021; L 0.015; C -0.094; R 0.02; W 0.03; H 0.101; K -0.018; M 0.014
S34: E -0.772; T -0.601; F -1.06; M -0.779; C -0.047; L -0.967; D -0.898; G 0.06; I -0.844; R -0.623; H -0.641; Q -0.485; Y -0.646; N -0.434; A -0.004; P -1.08; K -0.954
E31: N -0.008; D 0.138; K -0.034; S -0.034; Y 0.116; I 0.05; Q 0.02; F 0.041; G 0.015; T 0.106; A 0.066; M -0.039; W 0.084; V 0.072; C -0.13; H 0.069; P -0.056; L 0.056
C35: S 0.052; K -1.01; H -0.769; P -0.788; I -0.039; E -0.952; T 0.074; N -0.529; F 0.133; Q -0.803; M 0.111; A -0.027; L 0.102; R -0.987; G 0.048; Y -0.217; V 0.021; W -0.006
T16: P 0.102; I -0.055; R 0.003; E 0.046; W 0.078; Q -0.108; Y 0.018; M 0.061; N 0.024; K -0.129; V -0.035; G 0.006; H -0.003; F 0.148; L 0.049
M29: D 0.034; H 0.124; K -0.006; A 0.048; P 0.058; C 0.132; E 0.109; S 0.063; F 0.036; Y 0.025; W 0.027; G 0.053
